According to IntAct's records for PubMed 19154346:

B1: Calreticulin (Homo sapiens), P27797 (parent)
chain: MLLSVPLLLGLLGLAVAEPAVYFKEQFLDGDGWTSRWIESKHKSDFGKFVLSSGKFYGDEEKDKGLQTSQDARFYALSASFEPFSNKGQTLVVQFTVKHEQNIDCGGGYVKLFPNSLDQTDMHGDSEYNIMFGPDICGPGTKKVHVIFNYKGKNVLINKDIRCKDDEFTHLYTLIVRPDNTYEVKIDNSQVESGSLEDDWDFLPPKKIKDPDASKPEDWDERAKIDDPTDSKPEDWDKPEHIPDPDAKKPEDWDEEMDGEWEPPVIQNPEYKGEWKPRQIDNPDYKGTWIHPEIDNPEYSPDPSIYAYDNFGVLGLDLWQVKSGTIFDNFLITNDEAYAEEFGNETWGVTKAAEKQMKDKQDEEQRLKEEEEDKKRKEEEEAEDKEDDEDKDEDEEDEEDKEEDEEEDVPGQAKDEL

Variants of: B1
Conditions: with gbrap_human GABARAP

effect of a mutation on the interaction | Variant
disrupting interaction | W200A
